Measured values: paper PMC7904446 (Cell Host & Microbe, 2021)
Where a chain is given by its changes, count along the chain named.

B1: ZDY20 human monoclonal antibody, IgG1 (antibody, V domains shown)
VH: EVQLVETGGGLIQPGGSLRLSCAASGITVSSNYMSWVRQAPGKGLEWVSVIYSGGSTYYADSVKGRFTISRDNSKNTLYLQMNSLRAEDTAVYYCAREGLGDGYNAIAGLGFDLWGRGTLVTVSS
VL: DIVMTQSPSSLSASVGDSVTITCQASQDINNYLNWYQQKPGRAPELLINDASNLEAGVPSRFSGSGSGTDFTLTISSLQTEDFATYYCQQYGSLPYTFGQGTKLDIR
B2: ZDY28 human monoclonal antibody, IgG1 (antibody, V domains shown)
VH: EVQLVQSGGGVVQPGRSLRLSCAASGFTFSSYGMHWVRQAPGKGLEWVAVISYDGSNKYYADSVKGRFTISRDNSKNTLYLQMNSLRAEDTAVYYCASRSTVVPAAIFAFDIWGQGTMVTVSS
VL: not shown
B3: ZDY49 human monoclonal antibody, IgG1 (antibody, V domains shown)
VH: B2 VH with Q6E
VL: not shown
B4: ZDY95 human monoclonal antibody, IgG1 (antibody, V domains shown)
VH: B2 VH
VL: not shown

molecular target: T1, SARS-CoV-2 spike trimer protein (SARS-CoV-2, Wuhan-Hu-1 reference, UniProt P0DTC2); assay: SPR

Binder | Kd [nM]
B1 | 8.8
B2 | 10.2
B3 | 24.4
B4 | 15

molecular target: T1, SARS-CoV-2 spike trimer protein; assay: cell-based or functional assay

Binder | neutralisation of live SARS-CoV-2, IC50; blocks S binding to ACE2 [µg/mL] | pseudovirus neutralisation in 293T-ACE2 cells, IC90; blocks S binding to ACE2 [µg/mL]
B1 | 0.35 | 1.24
B2 | – | 7.47
B3 | – | 17.1
B4 | – | 13.3
